{"source": "patent US20100129294", "proteins": {"B1": {"name": "nattokinase (protein)", "chain": "AQSVPYGISQIKAPALHSQGYTGSNVKVAVIDSGIDSSHPDLNVRGGASFVPSETNPYQDGSSHGTHVAGTIAALNNSIGVLGVAPSASLYAVKVLDSTGSGQYSWIINGIEWAISNNMDVINMSLGGPTGSTALKTVVDKAVSSGIVVAAAAGNEGSSGSTSTVGYPAKYPSTIAVGAVNSSNQRASFSSVGSELDVMAPGVSIQSTLPGGTYGAYNGTSMATPHVAGAAALILSKHPTWTNAQVRDRLESTATYLGNSFYYGKGLINVQAAAQ"}}, "key": {"[1]": {"biological_target": "β2-microglobulin (β2-M) fibrils, P61769", "sequence (P61769 21-119)": "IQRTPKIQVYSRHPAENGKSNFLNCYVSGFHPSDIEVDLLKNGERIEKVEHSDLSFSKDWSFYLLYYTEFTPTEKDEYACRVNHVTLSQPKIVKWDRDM"}, "[2]": {"biological_target": "Aβ40 fibrils formed from a synthetic Aβ40 peptide"}, "[3]": {"biological_target": "T1, insulin fibrils formed from purified bovine insulin, P01317", "T1 chain": "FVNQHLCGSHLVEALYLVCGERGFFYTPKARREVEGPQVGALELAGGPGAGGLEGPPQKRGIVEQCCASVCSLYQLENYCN"}, "[4]": {"biological_target": "transthyretin (TTR) fibrils, P02766"}}, "data": [{"protein": "B1", "values": [{"measurement": "degradation of β2-M fibrils at pH 7.4 and 37 C, by ThT fluorescence emission at 487 nm", "setting": "[1]", "value": "As for β2-M fibrils, it was degraded near completion in two hours"}, {"measurement": "loss of negative ellipticity at 218 nm in CD spectra after 1 hr of digestion (40 C, pH 7)", "setting": "[2]", "value": "nattokinase degraded all three fibrils"}, {"measurement": "degradation of insulin fibrils at pH 5, 40 C, by CD spectroscopy", "setting": "[3]", "value": "At pH 5, nattokinase did not show any activity"}, {"measurement": "degradation of insulin fibrils at pH 5-10, 40 C, by CD spectroscopy", "setting": "[3]", "value": "the nattokinase activity increased gradually with increasing pH and reached a maximal activity at pH 10 in the range tested"}, {"measurement": "loss of negative ellipticity at 218 nm in CD spectra after 1 hr of digestion (40 C, pH 7)", "setting": "[3]", "value": "nattokinase degraded all three fibrils"}, {"measurement": "degradation of TTR fibrils at pH 7.4 and 37 C, by ThT fluorescence emission at 487 nm", "setting": "[4]", "value": "TTR fibrils were almost completely degraded by nattokinase in one hour"}]}]}
